# Target: T1, DELLA (RGA1) (Arabidopsis thaliana, UniProt Q9SLH3)
# T1 construct: expressed in transfected cells; host or cells: yeast strain MaV203
# T1 sequence (Q9SLH3 with tags, fused parts or gaps): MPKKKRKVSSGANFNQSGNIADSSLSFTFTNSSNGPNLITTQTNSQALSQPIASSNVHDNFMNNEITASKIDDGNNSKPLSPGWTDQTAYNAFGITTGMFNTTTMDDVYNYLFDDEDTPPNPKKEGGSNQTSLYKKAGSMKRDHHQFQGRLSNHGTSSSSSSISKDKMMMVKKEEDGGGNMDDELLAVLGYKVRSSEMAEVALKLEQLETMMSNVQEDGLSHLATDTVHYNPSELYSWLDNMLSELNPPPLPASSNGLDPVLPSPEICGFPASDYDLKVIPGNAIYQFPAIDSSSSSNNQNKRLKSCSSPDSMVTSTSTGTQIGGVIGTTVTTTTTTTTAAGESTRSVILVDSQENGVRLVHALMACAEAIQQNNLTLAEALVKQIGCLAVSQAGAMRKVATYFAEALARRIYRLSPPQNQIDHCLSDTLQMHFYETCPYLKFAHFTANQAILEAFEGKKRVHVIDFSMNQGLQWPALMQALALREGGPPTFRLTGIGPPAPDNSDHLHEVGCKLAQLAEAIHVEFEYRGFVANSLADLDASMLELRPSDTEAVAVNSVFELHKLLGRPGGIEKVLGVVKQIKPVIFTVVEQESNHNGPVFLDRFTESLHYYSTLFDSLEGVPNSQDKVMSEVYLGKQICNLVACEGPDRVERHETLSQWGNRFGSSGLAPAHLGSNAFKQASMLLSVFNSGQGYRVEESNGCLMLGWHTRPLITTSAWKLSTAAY
# Test: Yeast two-hybrid (Y2H) analysis between PPD and DELLA (RGA1)
# Type: binding
# Settings: PPD1-DBD as bait, 15 mM 3AT
# Description: The ProQuest two-hybrid system (Invitrogen) was used to analyse interactions between PPD1, and RGA1. Full length coding sequences of PPD1, together with truncation or deletion derivatives of PPD1 (PPD1Δppd, PPD1Δtify, and PPD1Δjas*) (FIG. 5), were Gateway sub-cloned into pDEST32 (N-terminal GAL4DBD) or pDEST22 (N-terminal GAL4AD). When translated these generated the following peptide sequences: 55, 65, 66, 67, 68, 7169, which are PPD1-DBD, RGA1, RGA1-AD, PPD1-ppd-DBD, PPD1-tify-DBD, PP1-jas*-DBD respectively.
# Combinations of bait and prey constructs were used to co-transform yeast strain MaV203 (Invitrogen), with selection on synthetic dropout (SD) SD/-Leu/-Trp agar plates. Transformed strains were tested for interactions using 10 μl droplets of 1 in 10 and 1 in 100 dilutions on SD/-Leu/-Trp/-His plates with different concentrations of 3-aminotriazol (3-AT) (Sigma). The PPD1-RGA1 interaction was tested with PPD1-DBD used as bait. Transformed yeast was spotted as a ten-fold dilution on control medium (−2) or selective medium (−3) with 15 mM 3AT. Controls were empty vectors, DBD, GAL4 DNA binding domain, AD, GAL4 activation domain (FIG. 5).
molecule,measurement,value
"PPD1: PEAPOD 1 protein of Arabidopsis thaliana, SEQ ID NO: 1 (protein, listed as Arabidopsis thaliana) MDVGVSPAKSILAKPLKLLTEEDISQLTREDCRKFLKDKGMRRPSWNKSQAIQQVLSLKALYEPGDDSGAGIFRKILVSQPVNPPRVTTTLIEPSNELEACGRVSYPEDNGACHRMDSPRSAEFSGGSGHFVSEKDGHKTTISPRSPAETSELVGQMTIFYSGKVNVYDGIPPEKARSIMHFAANPIDLPENGIFASSRMISKLISKEKMMELPQKGLEKANSSRDSGMEGQANRKVSLQRYREKRKDRKFSKAKKCPGVASSSLEMFLNCQPRMKAAYSQNLGCTGSPLHSQSPESQTKSPNLSVDLNSEGI",interaction with DELLA (RGA1),can directly bind to DELLA
